Assay results taken from patent publication US20230250154A1 (CYTONICS, published 2023).

T1: ADAMTS5 (human, UniProt Q9UNA0 262-622, limits assumed)
T1 sequence (looked up): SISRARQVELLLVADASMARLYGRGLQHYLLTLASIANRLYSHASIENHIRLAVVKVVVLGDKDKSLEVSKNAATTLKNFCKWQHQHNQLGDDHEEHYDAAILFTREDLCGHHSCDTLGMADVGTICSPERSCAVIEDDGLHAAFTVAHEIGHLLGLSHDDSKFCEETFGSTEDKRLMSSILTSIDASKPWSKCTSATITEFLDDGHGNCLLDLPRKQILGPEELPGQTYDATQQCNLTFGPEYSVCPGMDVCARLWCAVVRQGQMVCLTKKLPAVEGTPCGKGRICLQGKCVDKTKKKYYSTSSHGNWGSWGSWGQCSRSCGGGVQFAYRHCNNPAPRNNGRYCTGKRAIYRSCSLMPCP

T2: ADAMTS4 (human, UniProt O75173 213-685, limits assumed)
T2 sequence (looked up): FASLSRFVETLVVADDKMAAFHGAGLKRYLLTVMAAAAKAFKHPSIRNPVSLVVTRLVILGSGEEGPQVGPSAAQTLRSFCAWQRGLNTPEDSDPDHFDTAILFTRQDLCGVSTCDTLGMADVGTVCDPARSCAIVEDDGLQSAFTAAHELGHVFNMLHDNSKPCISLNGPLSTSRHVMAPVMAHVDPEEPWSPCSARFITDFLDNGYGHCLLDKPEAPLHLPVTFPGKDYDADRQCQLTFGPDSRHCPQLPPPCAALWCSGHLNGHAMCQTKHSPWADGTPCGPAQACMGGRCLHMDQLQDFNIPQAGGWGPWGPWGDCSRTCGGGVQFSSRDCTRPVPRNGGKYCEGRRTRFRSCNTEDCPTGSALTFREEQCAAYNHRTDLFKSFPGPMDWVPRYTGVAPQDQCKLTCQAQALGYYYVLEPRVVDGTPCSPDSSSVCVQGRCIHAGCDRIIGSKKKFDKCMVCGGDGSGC


Assays:
Assay in all cases: cell-based or functional assay
MMP13 = MMP13 (human, UniProt P45452 104-471, limits assumed)
ADAMTS5 = molecular target: T1, ADAMTS5
ADAMTS4 = molecular target: T2, ADAMTS4

Binder	Protease Inhibition (% of WT) (MMP13)	Protease Inhibition (% of WT) (ADAMTS5)	Protease Inhibition (% of WT) (ADAMTS4)
Variant A2M, bait region SEQ ID NO 123 (other) SVSGKPQYMVLVPSLLHTETTEKGCVLLSYLNETVTVSASLESVRGNRSLFTDLEAENDVLHCVAFAVPKSSSNEEVMFLTVQVKGPTQEFKKRTTVMVKNEDSLVFVQTDKSIYKPGQTVKFRVVSMDENFHPLNELIPLVYIQDPKGNRIAQWQSFQLEGGLKQFSFPLSSEPFQGSYKVVVQKKSGGRTEHPFTVEEFVLPKFEVQVTVPKIITILEEEMNVSVCGLYTYGKPVPGHVTVSICRKYSDASDCHGEDSQAFCEKFSGQLNSHGCFYQQVKTKVFQLKRKEYEMKLHTEAQIQEEGTVVELTGRQSSEITRTITKLSFVKVDSHFRQGIPFFGQVRLVDGKGVPIPNKVIFIRGNEANYYSNATTDEHGLVQFSINTTNVMGTSLTVRVNYKDRSPCYGYQWVSEEHEEAHHTAYLVFSPSKSFVHLEPMSHELPCGHTQTVQAHYILNGGTLLGLKKLSFYYLIMAKGGIVRTGTHGLLVKQEDMKGHFSISIPVKSDIAPVARLLIYAVLPTGDVIGDSAKYDVENCLANKVDLSFSPSQSLPASHAHLRVTAAPQSVCALRAVDQSVLLMKPDAELSASSVYNLLPEKDLTGFPGPLNDQDDEDCINRHNVYINGITYTPVSSTNEKDMYSFLEDMGLKAFTNSKIRKPKMCPQLESQELGQRESESEGSELEGRGSGFKEGVEGKEEEGLGSGFFGFPIGKLRKYFPETWIWDLVVVNSAGVAEVGVTVPDTITEWKAGAFCLSEDAGLGISSTASLRAFQPFFVELTMPYSVIRGEAFTLKATVLNYLPKCIRVSVQLEASPAFLAVPVEKEQAPHCICANGRQTVSWAVTPKSLGNVNFTVSAEALESQELCGTEVPSVPEHGRKDTVIKPLLVEPEGLEKETTFNSLLCPSGGEVSEELSLKLPPNVVEESARASVSVLGDILGSAMQNTQNLLQMPYGCGEQNMVLFAPNIYVLDYLNETQQLTPEIKSKAIGYLNTGYQRQLNYKHYDGSYSTFGERYGRNQGNTWLTAFVLKTFAQARAYIFIDEAHITQALIWLSQRQKDNGCFRSSGSLLNNAIKGGVEDEVTLSAYITIALLEIPLTVTHPVVRNALFCLESAWKTAQEGDHGSHVYTKALLAYAFALAGNQDKRKEVLKSLNEEAVKKDNSVHWERPQKPKAPVGHFYEPQAPSAEVEMTSYVLLAYLTAQPAPTSEDLTSATNIVKWITKQQNAQGGFSSTQDTVVALHALSKYGAATFTRTGKAAQVTIQSSGTFSSKFQVDNNNRLLLQQVSLPELPGEYSMKVTGEGCVYLQTSLKYNILPEKEEFPFALGVQTLPQTCDEPKAHTSFQISLSVSYTGSRSASNMAIVDVKMVSGFIPLKPTVKMLERSNHVSRTEVSSNHVLIYLDKVSNQTLSLFFTVLQDVPVRDLKPAIVKVYDYYETDEFAIAEYNAPCSKDLGNADYKDDDDKGASHHHHHH	122 % of WT	126 % of WT	86 % of WT
Variant A2M, bait region SEQ ID NO 121 (other) SVSGKPQYMVLVPSLLHTETTEKGCVLLSYLNETVTVSASLESVRGNRSLFTDLEAENDVLHCVAFAVPKSSSNEEVMFLTVQVKGPTQEFKKRTTVMVKNEDSLVFVQTDKSIYKPGQTVKFRVVSMDENFHPLNELIPLVYIQDPKGNRIAQWQSFQLEGGLKQFSFPLSSEPFQGSYKVVVQKKSGGRTEHPFTVEEFVLPKFEVQVTVPKIITILEEEMNVSVCGLYTYGKPVPGHVTVSICRKYSDASDCHGEDSQAFCEKFSGQLNSHGCFYQQVKTKVFQLKRKEYEMKLHTEAQIQEEGTVVELTGRQSSEITRTITKLSFVKVDSHFRQGIPFFGQVRLVDGKGVPIPNKVIFIRGNEANYYSNATTDEHGLVQFSINTTNVMGTSLTVRVNYKDRSPCYGYQWVSEEHEEAHHTAYLVFSPSKSFVHLEPMSHELPCGHTQTVQAHYILNGGTLLGLKKLSFYYLIMAKGGIVRTGTHGLLVKQEDMKGHFSISIPVKSDIAPVARLLIYAVLPTGDVIGDSAKYDVENCLANKVDLSFSPSQSLPASHAHLRVTAAPQSVCALRAVDQSVLLMKPDAELSASSVYNLLPEKDLTGFPGPLNDQDDEDCINRHNVYINGITYTPVSSTNEKDMYSFLEDMGLKAFTNSKIRKPKMCPQLEPESSGEAIPMSIPTSEDLVVQIPENFFGVEAEGTGGERGVLGKLRKYFPETWIWDLVVVNSAGVAEVGVTVPDTITEWKAGAFCLSEDAGLGISSTASLRAFQPFFVELTMPYSVIRGEAFTLKATVLNYLPKCIRVSVQLEASPAFLAVPVEKEQAPHCICANGRQTVSWAVTPKSLGNVNFTVSAEALESQELCGTEVPSVPEHGRKDTVIKPLLVEPEGLEKETTFNSLLCPSGGEVSEELSLKLPPNVVEESARASVSVLGDILGSAMQNTQNLLQMPYGCGEQNMVLFAPNIYVLDYLNETQQLTPEIKSKAIGYLNTGYQRQLNYKHYDGSYSTFGERYGRNQGNTWLTAFVLKTFAQARAYIFIDEAHITQALIWLSQRQKDNGCFRSSGSLLNNAIKGGVEDEVTLSAYITIALLEIPLTVTHPVVRNALFCLESAWKTAQEGDHGSHVYTKALLAYAFALAGNQDKRKEVLKSLNEEAVKKDNSVHWERPQKPKAPVGHFYEPQAPSAEVEMTSYVLLAYLTAQPAPTSEDLTSATNIVKWITKQQNAQGGFSSTQDTVVALHALSKYGAATFTRTGKAAQVTIQSSGTFSSKFQVDNNNRLLLQQVSLPELPGEYSMKVTGEGCVYLQTSLKYNILPEKEEFPFALGVQTLPQTCDEPKAHTSFQISLSVSYTGSRSASNMAIVDVKMVSGFIPLKPTVKMLERSNHVSRTEVSSNHVLIYLDKVSNQTLSLFFTVLQDVPVRDLKPAIVKVYDYYETDEFAIAEYNAPCSKDLGNADYKDDDDKGASHHHHHH	115 % of WT	68 % of WT	64 % of WT
